Measurements as given in WO2010029497A1 (dated 2010).
Substitutions are numbered along the chain they refer to. Names may count otherwise.

How the values were obtained:
[1] = biological target: T1, human NGF (human, UniProt P01138 122-241); experiment: SPR (BIAcore), 100 RU human NGF on CM5 chip, Fab injected 2 min, 1800 s dissociation
[2] = biological target: T1, human NGF; experiment: SPR (BIAcore 3000), human NGF immobilised on CM5 chip, Fab injected
[3] = biological target: T1, human NGF; experiment: cell-based or functional assay
[4] = biological target: NT3; experiment: cell-based or functional assay
NT3, sequence (P20783 139-257): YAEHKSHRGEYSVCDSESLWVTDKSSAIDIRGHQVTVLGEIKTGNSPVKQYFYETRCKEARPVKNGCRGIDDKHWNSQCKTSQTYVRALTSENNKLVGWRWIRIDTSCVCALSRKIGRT

[5] = biological target: T1, human NGF; experiment: SPR (BIAcore 3000), human NGF immobilised on CM5 chip
[6] = biological target: T1, human NGF; experiment: summary sentence of the binding properties (BIAcore); its table is not reproduced in this copy
[7] = biological target: rat NGF (rat, UniProt P25427 122-241); experiment: cell-based or functional assay
rat NGF, sequence (P25427 122-241 limits assumed): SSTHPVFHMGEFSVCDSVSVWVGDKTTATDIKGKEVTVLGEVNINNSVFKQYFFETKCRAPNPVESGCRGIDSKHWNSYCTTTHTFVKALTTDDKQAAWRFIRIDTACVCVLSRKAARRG

[8] = biological target: T1, human NGF; experiment: SPR (BIAcore), human NGF immobilised on CM5 chip
[9] = biological target: T1, human NGF; experiment: SPR (BIAcore) screening assay, human NGF on chip, Fab from small culture lysates

T1 sequence (P01138 122-241 limits assumed): as the sequence (P25427 122-241 limits assumed) above, with T3S, V6I, M9R, T37M, A60D, E65D, T92M, D94G, A117V, G120A counted along it

**Q.** Which Kd [1] does the source give for “Fab fragment of mouse anti-NGF monoclonal antibody 911” here?
**A.** Its Kd is 3.7 nM.

**Q.** What about the koff [1] of the same molecule?
**A.** The koff was 8.4e-05 s⁻¹.

**Q.** And the kon [1]?
**A.** Its kon is 22000 M⁻¹ s⁻¹.

**Q.** What about the Kd [2] of the same molecule?
**A.** Its Kd is 10 nM.

**Q.** And the concentration that totally blocked NGF-elicited survival of trigeminal neurons [3]?
**A.** The concentration that totally blocked NGF-elicited survival of trigeminal neurons was 20 nM.

**Q.** With antibody E3 (full antibody) as the molecule, how does the inhibition of survival of trigeminal neurons promoted by NT3 [4] read?
**A.** Its inhibition of survival of trigeminal neurons promoted by NT3 is over 200 nM.

B1: 8L2-4D5 (CDR-grafted antibody, the template) (Fab, V domains shown)
VH: QVQLQESGPGLVKPSETLSLTCTVSGFSLIGYDINWIRQPPGKGLEWIGMIWGDGTTDYNSALKSRVTISVDTSKNQFSLKLSSVTAADTAVYYCARGGYYYGTSYYFDYWGQGTLVTVS
VL: DIQMTQSPSSLSASVGDRVTITCRASQDISNHLNWYQQKPGKAPKLLIYYISRFHSGVPSRFSGSGSGTDFTFTISSLQPEDIATYYCQQSKTLPYTFGQGTKLEIKR
notes: expressed in E. coli with human kappa constant domain (GenBank CAA09181) and CH1 of human IgG2a (P01859)
**Q.** With B1 as the molecule, how does the Kd [5] read?
**A.** Its Kd is about 38 nM.

B2: Fab E3 (Fab, V domains shown)
VH: B1 VH with I34L, M50I, L63V, V71K, Y101W, G103A
VL: B1 VL with D28S, H32N, I51T, S91E, K92H
notes: Fab made in HEK293 cells, purified on Ni-NTA; also called 3E; Fab 3E
**Q.** For B2, which Kd [1] is on record?
**A.** The Kd was about 0.07 nM.

**Q.** And the koff [1]?
**A.** Its koff is about 4.2e-05 s⁻¹.

**Q.** And the kon [1]?
**A.** The kon was about 600000 M⁻¹ s⁻¹.

**Q.** What about the “fold higher binding affinity than parent mouse antibody 911” value [6] of the same molecule?
**A.** The value was about 50 fold.

**Q.** And the “IC50, inhibition of rat NGF-dependent survival of mouse E13.5 trigeminal neurons, 1.5 pM rat NGF” value [7]?
**A.** The value was about 1.3 pM.

**Q.** What about the “IC50, inhibition of rat NGF-dependent survival of mouse E13.5 trigeminal neurons, 15 pM rat NGF” value [7] of the same molecule?
**A.** Its value is about 31.6 pM.

**Q.** And the “IC50, inhibition of human NGF-dependent survival of mouse E13.5 trigeminal neurons, 1.5 pM human NGF” value [3]?
**A.** Its value is about 1.2 pM.

**Q.** What about the “IC50, inhibition of human NGF-dependent survival of mouse E13.5 trigeminal neurons, 15 pM human NGF” value [3] of the same molecule?
**A.** The value was about 21 pM.

B3: H19-L129 (Fab, V domains shown)
VH: B1 VH with I34L, M50I, L63V, V71K
VL: B1 VL with D28S, H32N, I51T
notes: carries I34L, M50I, L63V (heavy) and D28S, H32N, I51T (light) with the grafted H3 and L3 CDRs, so it is E3 without Y101W, G103A, S91E, K92H; Fab with human CH1 (IgG2a) and kappa constant domains; also called Fab H19-L129; combined clone H19-L129
**Q.** Which Kd [8] does the source give for B3 here?
**A.** Its Kd is about 1 nM.

B4: Fab 3C (Fab, V domains shown)
VH: B1 VH with I34L, M50I, L63V, V71K, Y101W, G103A
VL: B1 VL with D28S, H32N, I51T, S91E, K92R
notes: Fab from HEK293 cells
**Q.** For B4, which Kd [1] is on record?
**A.** The Kd was about 0.35 nM.

B5: 8L2-6D5 (CDR-grafted antibody with the framework mutation V71K) (Fab, V domains shown)
VH: B1 VH with V71K
VL: B1 VL
notes: Fab with human CH1 (IgG2a) and kappa constant domains, his tag at the C terminus of the heavy chain; also called clone 8L2-6D5; Fab 8L2-6D5
**Q.** Which koff [9] does the source give for B5 here?
**A.** Its koff is 0.001 s⁻¹.

**Q.** And the Kd [2]?
**A.** Its Kd is about 15 nM.
